# In paper PMC12796744:
# Experiments:
# GST-HMGN2ΔC = test: in vitro multiplex nucleosome-bead conjugate binding assay; conditions: for response (RFU (background subtracted)): 0.625 nM GST-HMGN2ΔC, three technical replicates, parent: est. 100000, read off a plot; for other: HMGN2ΔC / HMGN2 relative to canonical nuc.: parent: est. 1.0, read off a plot
# GST-HMGN1 [1] = biological target: GST-HMGN1 (UniProt P05114); test: as above; conditions: 0.625 nM GST-HMGN1, three technical replicates, parent: est. 37000, read off a plot
# Chain of UniProt P05114 (P05114 whole entry, looked up): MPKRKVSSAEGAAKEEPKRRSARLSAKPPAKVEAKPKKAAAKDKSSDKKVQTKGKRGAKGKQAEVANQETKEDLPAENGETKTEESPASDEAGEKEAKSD
# GST-HMGN1ΔC = test: as above; conditions: for response (RFU (background subtracted)): 0.625 nM GST-HMGN1ΔC, three technical replicates, parent: est. 110000, read off a plot; for other: HMGN1ΔC / HMGN1 relative to canonical nuc.: parent: est. 1.0, read off a plot
# GST-HMGN2 [2] = biological target: GST-HMGN2 (UniProt P05204); test: as above; conditions: 0.625 nM GST-HMGN2, three technical replicates, parent: est. 54000, read off a plot
# GST-HMGN1 [3] = biological target: GST-HMGN1 (UniProt P05114); test: in vitro multiplex nucleosome-bead conjugate binding assay (titration); conditions: GST-HMGN1 at 5 on the x axis (axis uM; legend nM); raw RFU before normalization; parent: est. 160000; read off a plot
# GST-HMGN2 [4] = biological target: GST-HMGN2 (UniProt P05204); test: as above; conditions: GST-HMGN2 at 5 on the x axis (axis uM; legend nM); raw RFU before normalization; parent: est. 370000; read off a plot
response (RFU (background subtracted)) (GST-HMGN2ΔC),other: HMGN2ΔC / HMGN2 relative to canonical nuc. (GST-HMGN2ΔC),response (RFU (background subtracted)) (GST-HMGN1 [1]),response (RFU (background subtracted)) (GST-HMGN1ΔC),other: HMGN1ΔC / HMGN1 relative to canonical nuc. (GST-HMGN1ΔC),response (RFU (background subtracted)) (GST-HMGN2 [2]),response (GST-HMGN1 [3]) [RFU],response (GST-HMGN2 [4]) [RFU],Substance
52000,2.1,11000,66000,1.7,16000,58000,92000,canonical unmodified nucleosome (from UniProt P04908;O60814;P68431;P62805) H2A:E61A
38000,1.2,22000,66000,1.1,25000,74000,110000,canonical unmodified nucleosome (from UniProt P04908;O60814;P68431;P62805) H2A:E92K
